Source: the supplement of paper PMC10724198
± gives the standard deviation of the averaged measurements.

What was measured:
[1] = tested on: Saccharomyces cerevisiae; experiment: protein stability index of tFT-peptide fusion (C-terminal peptide) (PSI (0-1 scale)); higher = more stable (slower turnover)
Procedure: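 MPS profiling in S. cerevisiae of the tFT-X12 degron library: putative degron peptides plus stable controls, 12 aa, fused to the C-terminus of a sfGFP-mCherry timer. Cells are FACS-sorted into 8 mCherry/sfGFP bins and deep-sequenced. PSI runs from 0 (unstable) to 1 (stable). Backgrounds are wild type, das1Δ and doa10Δ at 30 °C, and wild type, das1Δ, cdc34-1 and cdc53-1 at 37 °C; 2-3 technical replicates each.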

[2] = tested on: Saccharomyces cerevisiae; experiment: as above; settings: genetic background: wild type; temperature: 30 C
[3] = genetic background: cdc34-1, temperature: 37 C
[4] = genetic background: cdc53-1, temperature: 37 C
[5] = genetic background: das1 deletion, temperature: 30 C
[6] = genetic background: das1 deletion, temperature: 37 C
[7] = genetic background: doa10 deletion, temperature: 30 C
[8] = genetic background: wild type, temperature: 30 C
[9] = genetic background: wild type, temperature: 37 C
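Also: PSI is a weighted mean of sequencing reads over stability bins, variants kept only with over 10 reads, mCherry proximal and sfGFP distal, peptide attached via GGGS linker.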

Sequence	protein stability index [1, 3]	protein stability index [1, 4]	protein stability index [1, 5]	protein stability index [1, 6]	protein stability index [1, 7]	protein stability index [1, 8]	protein stability index [1, 9]	protein stability index [2]
DRTRLFLLLIIA	0.179 ± 0.0023	0.256 ± 0.038	0.202 ± 0.028	0.4013 ± 0.0035	0.139 ± 0.0068	0.165 ± 0.016	0.273 ± 0.019	0.246 ± 0.042
DTHSRARAVLIA	0.656 ± 0.0091	0.719 ± 0.015	0.585 ± 0.016	0.704 ± 0.01	0.2366 ± 0.002	0.301 ± 0.019	0.509 ± 0.04	0.389 ± 0.086
DYARAWRTEVVC	0.393 ± 0.046	0.448 ± 0.025	0.328 ± 0.021	0.525 ± 0.016	0.288 ± 0.015	0.332 ± 0.017	0.5088 ± 0.0024	0.424 ± 0.01
EFEIALTLIRSI	0.665 ± 0.026	0.733 ± 0.0039	0.593 ± 0.01	0.726 ± 0.011	0.304 ± 0.009	0.361 ± 0.055	0.572 ± 0.031	0.49 ± 0.057
EFFILYFFLKVL	0.195 ± 0.007	0.274 ± 0.0064	0.21 ± 0.03	0.393 ± 0.0076	0.104 ± 0.01	0.116 ± 0.023	0.179 ± 0.0019	0.199 ± 0.021
EFVACFRLLVHG	0.3077 ± 0.003	0.368 ± 0.04	0.278 ± 0.021	0.441 ± 0.012	0.2322 ± 0.0015	0.269 ± 0.027	0.4091 ± 0.0033	0.392 ± 0.014
EGLCCGAYFLVF	0.695 ± 0.038	0.7228 ± 0.00076	0.584 ± 0.034	0.709 ± 0.0098	0.558 ± 0.014	0.587 ± 0.035	0.6751 ± 0.0057	0.571 ± 0.14
EGLDVRILIQVI	0.0334 ± 0.016	0.0735 ± 0.0072	0.179 ± 0.025	0.197 ± 0.0041	0.1362 ± 0.0008	0.164 ± 0.025	0.154 ± 0.019	0.294 ± 0.0068
EKTKRGLIQRVV	0.68 ± 0.064	0.721 ± 0.012	0.641 ± 0.021	0.693 ± 0.015	0.247 ± 0.016	0.293 ± 0.046	0.554 ± 0.025	0.3931 ± 0.0028
ESRRGILFIYIN	0.325 ± 0.049	0.601 ± 0.027	0.475 ± 0.025	0.647 ± 0.038	0.0808 ± 0.028	0.0867 ± 0.0055	0.0749 ± 0.024	0.13 ± 0.005
ETCFSFVCSVQC	0.328 ± 0.013	0.325 ± 0.025	0.284 ± 0.036	0.4019 ± 0.0023	0.221 ± 0.012	0.281 ± 0.02	0.385 ± 0.0093	0.398 ± 0.0044
EVFLARKRSMVV	0.593 ± 0.043	0.677 ± 0.058	0.537 ± 0.036	0.67627 ± 0.00012	0.175 ± 0.019	0.214 ± 0.015	0.418 ± 0.0088	0.341 ± 0.03
EWVWVVFSCVSW	0.303 ± 0.027	0.429 ± 0.0099	0.307 ± 0.029	0.435 ± 0.012	0.2932 ± 0.0027	0.32 ± 0.012	0.432 ± 0.024	0.3472 ± 0.0015
FAIRMHCLIFRC	0.123 ± 0.05	0.15 ± 0.024	0.26 ± 0.048	0.343 ± 0.036	0.2 ± 0.0056	0.124 ± 0.02	0.185 ± 0.0043	0.19 ± 0.0057
FCSVFAHFLLCH	0.382 ± 0.011	0.443 ± 0.0052	0.4 ± 0.013	0.49 ± 0.0094	0.193 ± 0.005	0.207 ± 0.013	0.271 ± 0.0043	0.264 ± 0.0032
FFCCVLFSIVVY	0.0536 ± 0.029	0.0863 ± 0.019	0.129 ± 0.026	0.167 ± 0.002	0.103 ± 0.0065	0.104 ± 0.028	0.114 ± 0.024	0.171 ± 0.0089
FFFSFSFPFLSF	0.462 ± 0.014	0.481 ± 0.027	0.464 ± 0.023	0.559 ± 0.0068	0.55 ± 0.022	0.477 ± 0.018	0.555 ± 0.031	0.518 ± 0.034
FFFSLFFVLFFA	0.284 ± 0.035	0.23 ± 0.011	0.21 ± 0.035	0.348 ± 0.061	0.323 ± 0.028	0.2 ± 0.022	0.314 ± 0.013	0.22 ± 0.0051
FFGRWWWSFLLA	0.582 ± 0.038	0.634 ± 0.0095	0.538 ± 0.019	0.663 ± 0.012	0.262 ± 0.0098	0.261 ± 0.033	0.443 ± 0.026	0.364 ± 0.026
FFLDVMFLLFFF	0.501 ± 0.062		0.399 ± 0.036	0.524 ± 0.008	0.44 ± 0.022	0.399 ± 0.021	0.513 ± 0.0088	0.445 ± 0.037

Sequence	protein stability index [1, 3]	protein stability index [1, 4]	protein stability index [1, 5]	protein stability index [1, 6]	protein stability index [1, 7]	protein stability index [1, 8]	protein stability index [1, 9]	protein stability index [2]
FFLLFCASFLRC	0.281 ± 0.021	0.202 ± 0.01	0.317 ± 0.011	0.433 ± 0.053	0.3661 ± 0.0025	0.294 ± 0.029	0.354 ± 0.0037	0.381 ± 0.014
FFLSFICVMLCG	0.192 ± 0.024	0.247 ± 0.024	0.173 ± 0.013	0.303 ± 0.0073	0.165 ± 0.0019	0.158 ± 0.011	0.2575 ± 0.0025	0.237 ± 0.027
FFSGSVFMAVSL	0.387 ± 0.011	0.44 ± 0.0097	0.444 ± 0.04	0.399 ± 0.017	0.467 ± 0.036	0.433 ± 0.02	0.37901 ± 0.00016	0.408 ± 0.008
FFVWGVFLGVSW	0.229 ± 0.033	0.264 ± 0.016	0.265 ± 0.043	0.406 ± 0.005	0.297 ± 0.015	0.25 ± 0.026	0.362 ± 0.0063	0.358 ± 0.012
FGEDFCHLLWCC	0.623 ± 0.033	0.713 ± 0.021	0.583 ± 0.026	0.725 ± 0.011	0.347 ± 0.0051	0.374 ± 0.027	0.542 ± 0.018	0.442 ± 0.014
FGFSFLHLFIFF	0.429 ± 0.051	0.395 ± 0.028	0.375 ± 0.033	0.519 ± 0.03	0.443 ± 0.011	0.313 ± 0.038	0.457 ± 0.013	0.399 ± 0.035
FGGICFAVLLCR	0.246 ± 0.016	0.262 ± 0.0027	0.263 ± 0.035	0.3926 ± 0.0036	0.258 ± 0.0034	0.244 ± 0.0097	0.357 ± 0.021	0.343 ± 0.013
FHICTQLIFITC	0.06103 ± 0.00047	0.0651 ± 0.015	0.146 ± 0.029	0.198 ± 0.0078	0.114 ± 0.0037	0.127 ± 0.0084	0.145 ± 0.0024	0.192 ± 0.025
FILCGFSVVLIG	0.153 ± 0.033	0.245 ± 0.0032	0.191 ± 0.036	0.395 ± 0.016	0.162 ± 0.019	0.184 ± 0.048	0.372 ± 0.014	0.255 ± 0.12
FILLIFLSLLSP	0.352 ± 0.0047	0.416 ± 0.024	0.294 ± 0.029	0.454 ± 0.01	0.26 ± 0.0071	0.281 ± 0.043	0.427 ± 0.016	0.3211 ± 0.0026
FIPPRTYCLMIG	0.57632 ± 0.00037	0.682 ± 0.0096	0.58 ± 0.0063	0.693 ± 0.011	0.219 ± 0.0046	0.233 ± 0.026	0.297 ± 0.015	0.323 ± 0.024
FIRLFLVSFFIS	0.405 ± 0.048	0.451 ± 0.027	0.375 ± 0.019	0.567 ± 0.032	0.174 ± 0.013	0.189 ± 0.022	0.298 ± 0.0093	0.31 ± 0.089
FLACYSSFLFVS	0.417 ± 0.034	0.576 ± 0.011	0.4917 ± 0.0018	0.587 ± 0.0092	0.0703 ± 0.024	0.0895 ± 0.022	0.136 ± 0.0035	0.149 ± 0.03
FLCFFGGCFFLV	0.581 ± 0.032	0.646 ± 0.06	0.523 ± 0.029	0.6462 ± 0.0016	0.4162 ± 0.0038	0.401 ± 0.025	0.5617 ± 0.0015	0.468 ± 0.0077
FLCLLFYLSFFS	0.55 ± 0.018	0.5422 ± 4.9e-05	0.404 ± 0.028	0.572 ± 0.0078	0.378 ± 0.021	0.391 ± 0.021	0.5482 ± 0.0007	0.415 ± 0.029
FLFWVLLVGCSF	0.244 ± 0.0058	0.299 ± 0.012	0.245 ± 0.035	0.3748 ± 0.0029	0.206 ± 0.015	0.206 ± 0.021	0.334 ± 0.013	0.304 ± 0.028
FLGVFFYFLLCV	0.235 ± 0.02	0.2583 ± 0.002	0.254 ± 0.026	0.35871 ± 0.00032	0.2529 ± 0.0012	0.239 ± 0.013	0.326 ± 0.0064	0.379 ± 0.03
FLLAIVRGVWLA	0.15 ± 0.029	0.115 ± 0.0084	0.257 ± 0.034	0.339 ± 0.014	0.154 ± 0.01	0.104 ± 0.032	0.112 ± 0.0028	0.176 ± 0.014
FLPHLMCVFSFC	0.456 ± 0.05	0.489 ± 0.01	0.394 ± 0.028	0.522 ± 0.0054	0.3324 ± 0.0015	0.334 ± 0.016	0.465 ± 0.0064	0.382 ± 0.0022
